Where a chain is given by its changes, count along the chain named.
T1: rat 5T4 on transfected HEK293 and CHO cells (rat, UniProt Q5PQV5 32-426)
T1 construct: whole, on cells
T1 sequence (looked up): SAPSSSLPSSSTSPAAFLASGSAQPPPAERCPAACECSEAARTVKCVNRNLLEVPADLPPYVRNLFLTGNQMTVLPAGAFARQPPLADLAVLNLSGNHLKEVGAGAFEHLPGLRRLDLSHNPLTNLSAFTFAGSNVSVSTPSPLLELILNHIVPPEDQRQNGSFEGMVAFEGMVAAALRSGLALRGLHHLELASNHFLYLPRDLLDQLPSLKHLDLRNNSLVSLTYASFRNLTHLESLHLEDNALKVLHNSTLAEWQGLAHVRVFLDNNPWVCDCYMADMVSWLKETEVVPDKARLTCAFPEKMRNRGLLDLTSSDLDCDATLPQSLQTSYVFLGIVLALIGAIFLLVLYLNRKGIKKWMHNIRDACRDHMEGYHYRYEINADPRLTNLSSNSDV

T2: unconjugated human TPBG/5T4 protein with a c-terminal polyhistidine and Avi tag (AcroBiosystems Cat. No. … (human, UniProt Q13641 32-355))
T2 construct: Bought protein; also called Acro TPGH52E5; Acro Catalog No. TPGH52E; not shown: C-terminal polyhistidine and Avi tag
T2 sequence: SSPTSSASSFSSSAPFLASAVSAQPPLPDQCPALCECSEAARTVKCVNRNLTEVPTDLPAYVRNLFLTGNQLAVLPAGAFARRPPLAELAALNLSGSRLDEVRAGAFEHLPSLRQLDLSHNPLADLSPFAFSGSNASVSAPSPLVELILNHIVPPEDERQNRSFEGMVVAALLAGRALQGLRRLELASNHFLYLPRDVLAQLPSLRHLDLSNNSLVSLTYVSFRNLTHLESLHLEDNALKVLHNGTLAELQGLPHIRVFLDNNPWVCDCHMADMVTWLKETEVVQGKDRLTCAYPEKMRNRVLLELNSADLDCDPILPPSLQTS

B1: mAbA4: 5T4 antibody comprising VH of SEQ ID NO:25 and VL of SEQ ID NO:26 (antibody, V domains shown)
VH: EVQLVESGGGLVQPGGSLRLSCAASGFTFSRYYIHWVRQAPGKGLEWVAFISPGGSYTYYADSVKGRFTISADTSKNTAYLQMNSLRAEDTAVYYCAREYYSMGVLDYWGQGTLVTVSS
VL: DIQMTQSPSSLSASVGDRVTITCRASQSVSSAVAWYQQKPGKAPKLLIYSASSLYSGVPSRFSGSRSGTDFTLTISSLQPEDFATYYCQQAYESPYTFGQGTKVEIK
modifications: Antibody mAbA4 VH Sequence; Antibody mAbA4 VL Sequence
B2: mAbA15: 5T4 antibody comprising VH of SEQ ID NO:44 and VL of SEQ ID NO:45 (antibody, V domains shown)
VH: EVQLVESGGGLVQPGGSLRLSCAASGFTFSSYYIHWVRQAPGKGLEWVAYITSTGSYTEYADSVKGRFTISADTSKNTAYLQMNSLRAEDTAVYYCARYDRSTRYSGLDYWGQGTLVTVSS
VL: B1 VL with E93A, S94T, Y96V
modifications: Antibody mAbA15 VH Sequence; Antibody mAbA15 VL Sequence
B3: mAbA17: 5T4 antibody comprising VH of SEQ ID NO:62 and VL of SEQ ID NO:63 (antibody, V domains shown)
VH: EVQLVESGGGLVQPGGSLRLSCAASGFTFSRYWIHWVRQAPGKGLEWVAAIFPYSGSTLYADSVKGRFTISADTSKNTAYLQMNSLRAEDTAVYYCARSPSRSILPSGLDYWGQGTLVTVSS
VL: B1 VL with A91G, Y92D, E93G
modifications: Antibody mAbA17 VH Sequence; Antibody mAbA17 VL Sequence
B4: mAbA17 (antibody, V domains shown)
VH: B3 VH
VL: DIQMTQSPSSLSASVGDRVTITCRASQSVSSAVAWYQQKPGKAPKLLIYSASSLYSGVPSRFSGSRSGTDFTLTISSLQPEDFATYYCQQGDGSPYTFGQGTKVEIKR
notes: also called Antibody mAbA17
B5: mAbA4 (antibody, V domains shown)
VH: B1 VH
VL: B4 VL with G91A, D92Y, G93E
notes: also called Antibody mAbA4
B6: mAbA15 (antibody, V domains shown)
VH: B2 VH
VL: B4 VL with G91A, D92Y, G93A, S94T, Y96V
notes: also called Antibody mAbA15

System: MCF-7 cells
Assay: Cell binding (flow cytometry), MCF-7 cells
Assay type: cell-based
Conditions: not given
Method: Antibodies that were selected for binding to 5T4, for example, such as those described in Example 2, were evaluated for binding to cells that express 5T4. Cells were harvested at 70-90% confluence on the day of the assay. In a v-bottom 96-well plate (Costar 3897), 100,000 cells per well were incubated with 50 μL per well 8- or 12-point antibody dilution series for 30 minutes at +4° C. After incubation, cells were washed once with PBS by centrifugation at 200×g for 5 minutes. Cells were then incubated with 50 μL per well of Alexa Fluor 488 Goat anti-human IgG Fab (Jackson Immuno Research 109-547-003) at 1:100 dilution for 30 minutes at +4° C. Cells were washed twice with PBS by centrifugation at 200×g for 5 minutes and were acquired on iQue Screener Plus (Sartorius). Mean fluorescence intensities of BL1 (Alexa-Fluor-488) channel were plotted against antibody concentrations to generate a dose response curve and EC50 values.

Molecule | binding to MCF-7 cells
B1 | binding
B2 | binding
B3 | binding

System: not listed separately
Assay: Size exclusion chromatography (SEC) developability
Assay type: physicochemical
Conditions: 1 mg/mL in Dulbecco's PBS pH 7.4
Method: (§1) Antibodies that were selected for binding to 5T4, such as those described in Examples 2 and 3, were tested by various methods to assess developability. For example, various chromatographic methods, including size exclusion chromatography (SEC), hydrophobic interaction chromatography (HIC), and standup monolayer adsorption chromatography (SMAC) were employed to assess factors, such as monomer percentage, solubility, and antibody aggregation or precipitation.
Size exclusion chromatography (SEC) analysis was performed using a 7.8 mm ID×30 cm TSKgel G3000SWXL column (Tosoh Bioscience LLC, PN 08541) with a 6 mm×4 cm guard column (PN 08543) on an Agilent 1100 HPLC. Antibodies were normalized to 1 mg/mL concentration in Dulbecco's PBS (pH 7.4, without Ca^2+/Mg^2+) and clarified via centrifugation to pellet particulates while still retaining soluble aggregates. The mobile phase buffer was Dulbecco's PBS (pH 7.4, without Ca^2+/Mg^2+) at 2× concentration (diluted from 10× stock concentration. For each sample, 10 μL was loaded and isocratically eluted at 1.0 mL/minute over 20 minutes at ambient temperature. Absorbance was monitored at 280 nm. Chromatographic peaks were integrated to determine percentage of homogeneity and retention time. The column stationary phase along with choice of mobile phase supports hydrophobic and electrostatic interactions in addition to molecular sizing (secondary interactions much milder compared to SMAC). Data analysis was performed using Agilent ChemStation B.04.03 SP1.

Molecule | developability based on SEC analysis
B1 | strong developability
B2 | strong developability
B3 | strong developability

System: not listed separately
Assay: Hydrophobic interaction chromatography (HIC) developability
Assay type: physicochemical
Conditions: 1 mg/mL in Dulbecco's PBS pH 7.4
Method: as §1
Hydrophobic interaction chromatography (HIC) analysis was performed using a 4.6 mm ID×3.5 cm TSKgel Butyl-NPR column (Tosoh Bioscience LLC, PN 14947) on an Agilent 1100 HPLC. Antibodies were normalized to 1 mg/mL concentration in Dulbecco's PBS (pH 7.4, without Ca^2+/Mg^2+). The column was equilibrated with 100% mobile phase Buffer A (2 M ammonium sulfate/20 mM sodium phosphate, pH 7.0) at a flow rate of 1 mL/minute at ambient temperature. For each sample, 10 μL was loaded and eluted using a gradient from 100% mobile phase buffer A to 100% mobile phase buffer B (20 mM sodium phosphate, pH 7.0) at 1.0 mL/minute over 15 minutes, held at 100% B for 3 minutes to wash the column, and returned 100% A for 2 minutes for equilibration. Absorbance was monitored at 280 nm. Sample retention time was calculated and compared to a set of standard controls to identify antibodies with increased retention time (increased hydrophobicity) and the presence of multiple species. Data analysis was performed using Agilent ChemStation B.04.03 SP1

Molecule | developability based on HIC analysis
B1 | strong developability
B2 | strong developability
B3 | strong developability

Biological target: T1, rat 5T4 on transfected HEK293 and CHO …
Assay: cell binding on transfected HEK293 and CHO cells
Conditions: not given

binding result | Molecule
no binding | B4
no binding | B5
no binding | B6

Biological target: T2, unconjugated human TPBG/5T4 protein …
Assay: ELISA on coated human 5T4 His-Avi (Acro TPG-H52E5); antibody condition: PBS time 24 hr.
Conditions: not given
Method: (§2) A. Normal Binding Unconjugated antibodies were tested for their ability to bind to human 5T4 (hu5T4) using ELISA. On Day 1, unconjugated human TPBG/5T4 protein with a c-terminal polyhistidine and Avi (AVITAG™) tag (AcroBiosystems (Newark, DE, USA), Cat. No. TPG-H52E5) was diluted 2 μg/mL in PBS, mixed thoroughly, plated 100 μL per well in a 96-well plate (Nunc MAXISORP®) and incubated overnight at 4° C.
(§3) 3. Oxidative Stress. Several unconjugated antibodies were tested for their ability to bind to 5T4 using ELISA in an oxidative environment. Solutions of 1 mg/mL to 10 mg/mL of antibody in 20 mM citrate/50 mM NaCl at a pH of 5.5 were prepared and stored at 37° C. for 1 to 2 weeks.

EC50 [nM] | Molecule
0.186 | B4
0.2 | B5
0.212 | B6

Biological target: T2, unconjugated human TPBG/5T4 protein …
Assay: ELISA on coated human 5T4 His-Avi (Acro TPG-H52E5); antibody condition: PBS + H2O2 time 0
Conditions: not given
Method: as §2, §3

EC50 [nM] | Molecule
0.188 | B4
0.225 | B5
0.191 | B6

Source: US20250295803A1, “5T4 ANTIBODY-DRUG CONJUGATES AND USES THEREOF” (EXELIXIS, INC., priority 2022, published 2025)
